Consider three substances from patent US20170306050.

One data set deals with α1-antitrypsin (UniProt P01009).
α1-antitrypsin, sequence (P01009 whole entry, looked up): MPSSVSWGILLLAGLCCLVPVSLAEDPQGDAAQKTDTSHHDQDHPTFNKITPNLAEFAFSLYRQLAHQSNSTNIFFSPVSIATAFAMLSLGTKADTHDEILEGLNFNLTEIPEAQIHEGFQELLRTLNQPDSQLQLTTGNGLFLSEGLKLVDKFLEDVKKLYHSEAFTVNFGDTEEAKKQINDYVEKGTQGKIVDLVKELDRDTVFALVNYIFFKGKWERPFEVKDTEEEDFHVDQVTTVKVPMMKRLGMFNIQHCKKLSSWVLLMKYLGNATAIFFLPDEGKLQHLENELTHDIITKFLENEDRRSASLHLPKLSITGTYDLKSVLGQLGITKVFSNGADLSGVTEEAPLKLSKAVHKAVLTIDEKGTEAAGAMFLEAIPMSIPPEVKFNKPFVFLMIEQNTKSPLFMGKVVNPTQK

active MMP9, sequence (chain, as listed by the source): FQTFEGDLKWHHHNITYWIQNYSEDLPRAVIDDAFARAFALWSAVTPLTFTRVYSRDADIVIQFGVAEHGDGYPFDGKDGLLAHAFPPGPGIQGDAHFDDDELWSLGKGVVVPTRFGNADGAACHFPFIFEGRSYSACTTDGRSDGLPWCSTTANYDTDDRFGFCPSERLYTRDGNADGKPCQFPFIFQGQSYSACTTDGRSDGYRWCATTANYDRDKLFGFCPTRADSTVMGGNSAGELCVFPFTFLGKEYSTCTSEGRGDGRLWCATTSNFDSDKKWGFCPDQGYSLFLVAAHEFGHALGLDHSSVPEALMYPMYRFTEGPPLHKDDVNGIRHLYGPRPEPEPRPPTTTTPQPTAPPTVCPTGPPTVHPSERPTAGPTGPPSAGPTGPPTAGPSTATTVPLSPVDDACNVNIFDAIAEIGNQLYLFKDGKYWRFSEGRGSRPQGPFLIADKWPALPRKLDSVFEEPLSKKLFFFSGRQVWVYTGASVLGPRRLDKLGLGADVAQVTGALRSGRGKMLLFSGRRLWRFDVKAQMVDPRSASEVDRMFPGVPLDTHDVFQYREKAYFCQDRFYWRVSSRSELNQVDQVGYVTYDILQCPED
active MMP3, sequence (chain, as listed by the source): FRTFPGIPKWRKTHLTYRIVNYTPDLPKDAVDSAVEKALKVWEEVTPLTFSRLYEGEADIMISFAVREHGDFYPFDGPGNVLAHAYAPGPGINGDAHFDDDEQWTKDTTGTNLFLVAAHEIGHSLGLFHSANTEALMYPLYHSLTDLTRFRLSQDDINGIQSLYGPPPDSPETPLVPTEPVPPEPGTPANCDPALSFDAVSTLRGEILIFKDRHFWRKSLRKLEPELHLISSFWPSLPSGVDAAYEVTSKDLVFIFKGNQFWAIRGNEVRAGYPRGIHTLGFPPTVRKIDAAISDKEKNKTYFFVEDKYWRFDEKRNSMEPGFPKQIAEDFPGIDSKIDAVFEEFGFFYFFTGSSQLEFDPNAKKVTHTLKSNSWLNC

As for active MMP3, the “activation of pro-MMP9 (appearance of the active MMP9 fragment by Li-Cor Western blot and increase in gelatinolytic activity)” value in the data set on Pro-MMP9 was “Both proteases activated MMP9 in a dose-dependent manner”. On to active MMP9, for which the “cleavage of α1-antitrypsin by Western blot” value in the data set with α1-antitrypsin is “In the presence of active MMP9 alone, α1-antitrypsin was cleaved from the active form to the inactive form”.

As for active Pseudomonas elastase, the “activation of pro-MMP9 (appearance of the active MMP9 fragment by Li-Cor Western blot and increase in gelatinolytic activity)” value in the data set with Pro-MMP9 was “Both proteases activated MMP9 in a dose-dependent manner”.
